Results from the supplement of paper PMC10724198.
± gives the standard deviation of the averaged measurements.

What follows are sequences tested on Saccharomyces cerevisiae (assay: protein stability index of tFT-peptide fusion (C-terminal peptide) (PSI (0-1 scale)); higher = more stable (slower turnover)). Details: genetic background: wild type; temperature: 30 C.
Protocol: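 Multiplexed protein stability (MPS) profiling in S. cerevisiae. Random 12-aa peptides (tFT-X12 library) are fused to the C-terminus of a sfGFP-mCherry tandem fluorescent timer, after mCherry and a GGGS linker. Cells are FACS-sorted into 8 mCherry/sfGFP bins and deep-sequenced. The protein stability index (PSI) is the read-weighted bin average, scaled from 0 (unstable) to 1 (stable). Only peptides with >10 reads are reported; cells were grown at 30 °C in SC-His with glucose.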
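Note: PSI is a weighted mean of sequencing reads over stability bins, variants kept only with over 10 reads, mCherry proximal and sfGFP distal, peptide attached via GGGS linker.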

Sequence | protein stability index
GSLFLRQHTLLR | 0.645 ± 0.0077
GSLRRSHYLLRA | 0.588 ± 0.086
GSLVGATVSKEC | 0.63 ± 0.083
GSLWGAFFRGLL | 0.688 ± 0.04
GSLWGGFFRGLL | 0.70105 ± 0.00018
GSMCYRTVTNLR | 0.593 ± 0.017
GSMVWVRCGLER | 0.634 ± 0.022
GSNPYNRHLINI | 0.693 ± 0.02
GSPALGSCSWSR | 0.627 ± 0.057
GSPCPIVLICGL | 0.504 ± 0.034
GSQHSPRPFFFQ | 0.72 ± 0.038
GSQLFESVVVRV | 0.679 ± 0.061
GSQPSQRRSSGA | 0.679 ± 0.014
GSRAWERSERVR | 0.649 ± 0.084
GSRIVCFWSGAG | 0.717 ± 0.011
GSRLIGGFIVVG | 0.6365 ± 0.0021
GSRPPPRPLFPS | 0.697 ± 0.048
GSSAVGWGGVWW | 0.796 ± 0.11
GSSGPCRSHVLG | 0.694 ± 0.02
GSSYDSEISRQS | 0.732 ± 0.0089
GSTSLILSMSPA | 0.693 ± 0.027
GSVCVGGFGFFG | 0.657 ± 0.039
GSVLPPPSSPPL | 0.704 ± 0.013
GSWDEFGVYSRV | 0.6126 ± 0.0058
GTALERMWLEIE | 0.7387 ± 0.0024
GTLGRMVTPAAW | 0.6358 ± 0.0039

Sequence | protein stability index
GTPHSKGVGFDH | 0.655 ± 0.048
GTRQWPARSDVV | 0.692 ± 0.031
GTVEDVLIFYEP | 0.691 ± 0.1
GTVLSVARGWCV | 0.692 ± 0.11
GTWSVYSEKFVG | 0.652 ± 0.0081
GVAGRRGQRDVR | 0.746 ± 0.088
GVARSMAGWARC | 0.703 ± 0.035
GVDCPGPKRDRK | 0.626 ± 0.011
GVESRSCCVFWG | 0.72 ± 0.012
GVFIGWAGYKGT | 0.661 ± 0.027
GVFVVEWSGGEG | 0.586 ± 0.064
GVGCVGWGSSCA | 0.673 ± 0.093
GVGGGRVLLLRL | 0.614 ± 0.042
GVGGGWVGCGVI | 0.764 ± 0.06
GVGGVLLCCCIV | 0.573 ± 0.35
GVGMWCSRLRVG | 0.5952 ± 0.00044
GVGRGGSSRWLG | 0.646 ± 0.06
GVGSVQRCGGGG | 0.6771 ± 0.0035
GVGVWVVLGRAG | 0.644 ± 0.031
GVGVWWRGVIMG | 0.615 ± 0.0095
GVIFPQFDPCAL | 0.788 ± 0.056
GVKSSRRSLHGS | 0.738 ± 0.037
GVLGGGVFGGSV | 0.631 ± 0.077
GVLIDVFGRSAV | 0.696 ± 0.029
GVLLGSKFCQQL | 0.641 ± 0.093
GVLPRPPPTEGT | 0.722 ± 0.041

Sequence | protein stability index
GVLQEYIGKKQK | 0.723 ± 0.043
GVLQYPPCTYPH | 0.675 ± 0.0078
GVLSLFGFNTVV | 0.71 ± 0.16
GVMTGGPPGGAG | 0.642 ± 0.04
GVPRNSCHYPYG | 0.6462 ± 0.0049
GVPVGVDSFHGV | 0.66848 ± 4.1e-05
GVRAVRSCRMQR | 0.702 ± 0.072
GVRCCGLCGVGV | 0.615 ± 0.0088
GVRGKDCMGGGM | 0.613 ± 0.063
GVRLRNLTIITI | 0.697 ± 0.037
GVRRVVKGTKGC | 0.662 ± 0.013
GVSCIAEGRGGL | 0.668 ± 0.025
GVSCIAEGRGGW | 0.7143 ± 0.00091
GVSWMRAGFEFM | 0.779 ± 0.021
GVSWSWRGCCRR | 0.7109 ± 0.0058
GVVGVQTLIISN | 0.653 ± 0.043
GVVGWWWVRGMG | 0.756 ± 0.023
GVVIGGAGYKGT | 0.633 ± 0.058
GVVSSSIFDLWS | 0.746 ± 0.12
GVVVIVKYKMGV | 0.579 ± 0.031
GVWLWVLGACRR | 0.657 ± 0.057
GVWVRGTRRGWG | 0.741 ± 0.2
GVYRGNNGSPVK | 0.689 ± 0.0086
GWAIKGPFTLRS | 0.663 ± 0.044
GWARQAADGWGG | 0.709 ± 0.089
GWCGGAIIRAWD | 0.678 ± 0.039

Sequence | protein stability index
GWDRNVGWVVGR | 0.735 ± 0.044
GWESCLGVTRSV | 0.69 ± 0.018
GWEYMDERVNQS | 0.74 ± 0.013
GWGGGEGVEGEP | 0.678 ± 0.048
GWGGGGGGGAGG | 0.665 ± 0.057
GWGGGGGGRGWG | 0.71 ± 0.055
GWGSGSYRRRAV | 0.695 ± 0.055
GWMGGFLVMSID | 0.686 ± 0.037
GWNRVGDWGVCG | 0.736 ± 0.01
GWRAGGTGAPSR | 0.653 ± 0.041
GWRHFVLFWCGL | 0.752 ± 0.022
GWSCGGVGGGLG | 0.71 ± 0.04
GWSVWFGLGGVW | 0.689 ± 0.022
GWTVCVFGSCGV | 0.692 ± 0.051
GWWVVTLRSGLR | 0.651 ± 0.09
GYCLGVGLRLLH | 0.562 ± 0.018
GYRMEGRVDSGG | 0.6495 ± 0.004
GYTRYYRLLQSR | 0.642 ± 0.028
GYTSGEEGAVTA | 0.624 ± 0.016
HAPALSSTPRLL | 0.6836 ± 0.0064
HAPPPPDASPPL | 0.677 ± 0.051
HATPPAPHSVSS | 0.774 ± 0.036
HCFWVVTGGSWF | 0.691 ± 0.06
HCPIPWASLNCL | 0.665 ± 0.0082
HDAPTRQLTLPG | 0.663 ± 0.031
HDETKAYLAPGQ | 0.697 ± 0.037

Sequence | protein stability index
HFGPRTTLCAPD | 0.666 ± 0.034
HGLESMNRYRWI | 0.555 ± 0.016
HGLLDPLSILLY | 0.668 ± 0.013
HGNFLTALVGRI | 0.669 ± 0.046
HGSVGRIAHVLS | 0.6672 ± 0.0062
HGVQEFRVAPEF | 0.738 ± 0.035
HHEDGRPTCQAN | 0.677 ± 0.046
HHPLGSPPVPPP | 0.729 ± 0.039
HHPTQRPRHRLG | 0.683 ± 0.082
HIKSENKEKGKI | 0.624 ± 0.022
HILSPRPAIGVL | 0.612 ± 0.021
HIPRLPRPTRAP | 0.682 ± 0.059
HIYHIRFANKRG | 0.657 ± 0.013
HKNPQKEVIAKT | 0.744 ± 0.058
HLDVRGTRRMGT | 0.669 ± 0.042
HLGPPPGRVFAV | 0.6194 ± 0.0052
HLPGFAVVFPFP | 0.717 ± 0.032
HLPPMLSCTLRS | 0.657 ± 0.046
HLPRHVSLLGPP | 0.671 ± 0.0079
HLPSPLPSPSFH | 0.6061 ± 0.0017
HLRPRYSLVPAT | 0.651 ± 0.048
HLSPGRLPPPVQ | 0.7136 ± 0.006
HMLSGRSFVRGD | 0.69 ± 0.038
HNFYKLNLDHLK | 0.649 ± 0.061
HPGPPPPPAAAA | 0.679 ± 0.007
HPKPNLPPAAVH | 0.6854 ± 0.0049

Sequence | protein stability index
HPLFCPPPPPLA | 0.708 ± 0.036
HPLPPPPRSPPS | 0.732 ± 0.011
HPNGVMIGKNPT | 0.702 ± 0.023
HPNKPTYLPSPY | 0.768 ± 0.1
HPPAPSPPETSL | 0.69756 ± 0.0005
HPPPFRLPPAPP | 0.639 ± 0.0072
HPPPSLAASPPP | 0.544 ± 0.017
HPPPSNYWPSSA | 0.658 ± 0.084
HPPTLCPLSRRH | 0.659 ± 0.047
HPRRLRPAHTPP | 0.725 ± 0.0075
HPSFPPHRSPAS | 0.78 ± 0.023
HPSRWPSPRAIL | 0.684 ± 0.051
HPTRPHLPPFAP | 0.681 ± 0.066
HQKQCRSNRHRG | 0.657 ± 0.05
HRAFAAGFGVWG | 0.669 ± 0.067
HRCPSPPWFHPS | 0.752 ± 0.071
HRILILSGLRAG | 0.626 ± 0.041
HRPSPLPPRVPL | 0.673 ± 0.033
HRRASYVLSPLS | 0.7413 ± 0.0073
HRRGRVAQFAIS | 0.644 ± 0.029
HRVNKKNCEEKT | 0.631 ± 0.053
HRVVAATKSPSA | 0.727 ± 0.064
HRYSGSTFSAVL | 0.728 ± 0.11
HSLRPPPRHQQK | 0.689 ± 0.02
HSNPPPRRHPTI | 0.756 ± 0.068
